Data from patent US20240010747A1, “ANTI-MRP4 (ENCODED BY ABCC4 GENE) ANTIBODIES AND USES THEREOF” (Kenjockety Biotechnology, Inc., priority 2020, published 2024).
Values belong to the binder of their own block, whether it stands above or below them.

Key:
cynomolgus ABCC4 = target: T1, cynomolgus ABCC4 (cynomolgus, UniProt A0A2K5W0Z4 1-1325); test: FACS, different C6.cC4 cell line stably expressing cynomolgus ABCC4
T1 construct: whole, on cells; Expressed on murine C6 cells stably transfected with cynomolgus ABCC4 cDNA with C-terminal FLAG tag; not shown: C-terminal fused FLAG tag
T1 sequence: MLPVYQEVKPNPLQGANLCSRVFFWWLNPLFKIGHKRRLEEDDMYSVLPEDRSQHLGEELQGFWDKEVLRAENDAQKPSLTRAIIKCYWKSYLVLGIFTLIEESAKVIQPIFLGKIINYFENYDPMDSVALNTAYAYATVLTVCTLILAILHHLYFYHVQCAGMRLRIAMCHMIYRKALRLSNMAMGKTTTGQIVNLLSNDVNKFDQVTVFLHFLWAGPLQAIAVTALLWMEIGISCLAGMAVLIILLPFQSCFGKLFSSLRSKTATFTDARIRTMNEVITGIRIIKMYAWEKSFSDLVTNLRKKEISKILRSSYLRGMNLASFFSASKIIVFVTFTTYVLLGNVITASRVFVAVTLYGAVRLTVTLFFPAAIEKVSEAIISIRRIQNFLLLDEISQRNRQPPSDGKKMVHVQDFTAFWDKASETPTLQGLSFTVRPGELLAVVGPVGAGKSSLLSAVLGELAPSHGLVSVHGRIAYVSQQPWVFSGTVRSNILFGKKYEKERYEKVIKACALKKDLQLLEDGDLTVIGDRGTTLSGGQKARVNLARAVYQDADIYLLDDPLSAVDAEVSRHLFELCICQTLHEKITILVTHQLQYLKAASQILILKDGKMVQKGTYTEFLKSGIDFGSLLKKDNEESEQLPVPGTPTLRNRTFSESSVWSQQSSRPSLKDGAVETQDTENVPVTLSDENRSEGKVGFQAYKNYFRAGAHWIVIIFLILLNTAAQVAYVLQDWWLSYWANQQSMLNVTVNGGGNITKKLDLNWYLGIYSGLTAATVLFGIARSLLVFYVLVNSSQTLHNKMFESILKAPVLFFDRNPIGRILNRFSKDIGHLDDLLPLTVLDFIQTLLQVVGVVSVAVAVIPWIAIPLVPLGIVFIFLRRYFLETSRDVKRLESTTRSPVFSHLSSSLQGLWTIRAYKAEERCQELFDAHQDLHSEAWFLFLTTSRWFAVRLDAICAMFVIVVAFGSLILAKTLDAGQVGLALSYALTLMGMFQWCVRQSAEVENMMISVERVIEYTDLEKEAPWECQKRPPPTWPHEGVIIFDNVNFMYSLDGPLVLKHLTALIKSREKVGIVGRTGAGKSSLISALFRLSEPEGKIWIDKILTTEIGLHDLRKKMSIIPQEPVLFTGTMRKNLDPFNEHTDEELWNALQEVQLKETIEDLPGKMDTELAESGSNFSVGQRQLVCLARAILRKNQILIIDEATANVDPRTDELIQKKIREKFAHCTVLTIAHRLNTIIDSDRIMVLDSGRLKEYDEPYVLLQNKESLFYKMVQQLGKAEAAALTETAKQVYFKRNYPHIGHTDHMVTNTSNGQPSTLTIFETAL
Protocol: (§1) Antibody binding to cells was evaluated by flow cytometry. Murine C6 cells stably transfected to express human or cynomolgus ABCC4 were washed once in flow cytometry buffer (PBS+2% FBS+0.02% sodium azide), resuspended at 2×10\hat{ }6 cells/mL in flow cytometry buffer, and dispensed into 96-well microtiter plates at 0.1 mL/well. Recombinant antibodies were added to cells at 5 ug/mL for initial binding confirmation, or serially diluted from 100 ug/mL in flow cytometry buffer. After incubating cells on ice for 30 min, cells were washed twice with flow cytometry buffer. Bound antibody was detected with PE-labeled F(ab′)₂ fragment goat anti-human IgG (Jackson ImmunoResearch) and evaluated on an Attune N×T flow cytometer. EC50 is calculated to be the concentration of antibody that gives half maximal response.

human ABCC4 = target: T2, human ABCC4 (human, UniProt O15439 1-1325); test: FACS, C6 cells stably expressing human ABCC4; + = MFI>3x background
T2 construct: Expressed on murine C6 cells stably transfected with human ABCC4 cDNA with C-terminal FLAG tag; also called MRP4; Multidrug resistance protein 4; not shown: C-terminal fused FLAG tag
T2 sequence: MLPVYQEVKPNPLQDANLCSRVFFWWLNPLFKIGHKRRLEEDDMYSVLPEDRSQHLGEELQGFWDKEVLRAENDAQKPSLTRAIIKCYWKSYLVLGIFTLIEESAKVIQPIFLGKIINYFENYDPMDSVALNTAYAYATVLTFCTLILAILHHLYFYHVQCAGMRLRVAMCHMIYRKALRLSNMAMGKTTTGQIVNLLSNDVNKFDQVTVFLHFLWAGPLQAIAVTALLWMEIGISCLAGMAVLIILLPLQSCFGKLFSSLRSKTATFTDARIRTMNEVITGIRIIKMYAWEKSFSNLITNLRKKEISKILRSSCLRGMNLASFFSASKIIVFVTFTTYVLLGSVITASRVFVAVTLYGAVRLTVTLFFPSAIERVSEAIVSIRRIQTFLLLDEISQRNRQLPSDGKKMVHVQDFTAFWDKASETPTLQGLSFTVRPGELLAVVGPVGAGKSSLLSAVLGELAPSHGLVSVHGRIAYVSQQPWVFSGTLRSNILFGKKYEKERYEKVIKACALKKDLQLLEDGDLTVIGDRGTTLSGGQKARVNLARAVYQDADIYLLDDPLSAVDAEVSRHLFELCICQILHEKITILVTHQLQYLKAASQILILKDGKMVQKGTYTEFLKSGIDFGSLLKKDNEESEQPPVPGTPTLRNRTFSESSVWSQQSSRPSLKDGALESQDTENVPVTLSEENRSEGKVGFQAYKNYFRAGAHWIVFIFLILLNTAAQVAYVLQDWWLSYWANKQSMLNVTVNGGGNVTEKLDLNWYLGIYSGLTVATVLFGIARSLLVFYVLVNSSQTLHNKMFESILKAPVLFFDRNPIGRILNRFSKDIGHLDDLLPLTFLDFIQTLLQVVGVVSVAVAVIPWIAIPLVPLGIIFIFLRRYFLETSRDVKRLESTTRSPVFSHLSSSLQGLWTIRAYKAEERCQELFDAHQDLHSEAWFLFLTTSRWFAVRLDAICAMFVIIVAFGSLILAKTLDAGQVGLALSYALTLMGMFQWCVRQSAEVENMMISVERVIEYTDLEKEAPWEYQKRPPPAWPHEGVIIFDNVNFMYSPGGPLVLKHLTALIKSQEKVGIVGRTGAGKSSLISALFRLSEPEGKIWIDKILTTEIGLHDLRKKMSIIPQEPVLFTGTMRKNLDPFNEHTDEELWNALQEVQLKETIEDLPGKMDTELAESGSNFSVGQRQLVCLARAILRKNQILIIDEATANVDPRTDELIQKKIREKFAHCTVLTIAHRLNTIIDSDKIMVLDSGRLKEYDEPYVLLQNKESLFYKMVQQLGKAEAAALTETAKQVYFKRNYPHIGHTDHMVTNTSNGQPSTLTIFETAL
Protocol: as §1

binding result (human ABCC4): binds
B1: C4.1139 (antibody, V domains shown)
VH: EVQLVESDGGLVQPGRSLKLSCAASGFTFSDYYMAWVRQAPTKGLYWVASISYDGSTTYYRDSVKGRFTISRDNAKSTLYLQMGSLRSEDTATYYCARLSIRYKGVMDAWGRGASVTVSS
VL: DVVMTQSPSNLAASPGESVSINCKASKSIGKFLAWYQQKPGRPNKLLIYSGSTLQSGTPSRFSGSGSGTDFTLTIRNLEPGDFGLYYCQHHIEYPPTFGPGTKLELK
binding result (cynomolgus ABCC4): no binding (tested: Rmax (MFI) below background level)

binding result (human ABCC4): binds
B2: C4.1059 (antibody, V domains shown)
VH: QVQLLQSGAALVKPGASVKMSCKPSGYTFTDYWVSWVKQSHGKSLEWIGEIYPNNGATNFNEKFKGKATLTVDKSTSTAYMELSRLTSEDSAIYYCPSRKYGYNWNFDYWGQGTMVTVSS
VL: DIVLTQSPALAVSLGQRATISCWASQSVSISRYNLMHWYQQKPGQQPKLLIYRASNLASGIPARFSGSGSGTDFTLTINPVQADDIATYYCQQSGESPWTFGGGTKLELK
binding result (cynomolgus ABCC4): no binding (tested: Rmax (MFI) below background level)

binding result (human ABCC4): binds
B3: C4.1148 (antibody, V domains shown)
VH: EVQLVESDGGLVQPGRSLKLSCAASGFTFSDYYMAWVRQAPPKGLEWVATISYDAFTTYYRDSVKGRFTISRDNAKTILFLQMDSLRSEDTATYYCIRLSTRYKGVMDAWGHGASVTVSS
VL: DIQMTQSPSNLAASPGESVSINCKASETIYKYLAWYQQKPGRTNKLLIYSGSTLQSGTPSRFSGSGSGTDFTLTIRNLEPEDFGRYYCQHHVEYPPTFGAGTKLELK
binding result (cynomolgus ABCC4): no binding (tested: Rmax (MFI) below background level)
